Here are results for 3 molecules from US20170058008A1 (SYNGENTA PARTICIPATIONS, published 2017).

The target of assay [1] is Hsc70 from S. frugiperda (native) (S. frugiperda). In words: cell-based or functional assay.
Assay [2] has as its target ATP synthase β from S. frugiperda (native) (S. frugiperda). In words: cell-based or functional assay.
Assay [3] concerns the target ATP synthase α from S. frugiperda (native) (S. frugiperda). Nature of the assay: cell-based or functional assay.
Assay [4] deals with ATP synthase α + β of Sf9 cells (native, both silenced together) (S. frugiperda). In words: cell-based or functional assay.
Assay [5] addresses Hsc70, cadherin from M. sexta, and aminopeptidase-N (APN) from M. sexta, co-expressed in Drosophila S2 cells (S. frugiperda; M. sexta). In words: cell-based or functional assay.
Assay [6] concerns the target Hsc70 and serpin, co-expressed in Drosophila S2 cells (S. frugiperda; M. sexta) (UniProt Q9U639). Nature of the assay: cell-based or functional assay.
Assay [7] addresses cell surface displayed serpin from M. sexta (yeast display, pYD1) (M. sexta). Nature of the assay: biopanning of a yeast surface-displayed M. sexta cDNA library with biotinylated trypsinized Vip3A; none out of twenty clones in the control without bVip3A/T.
A further assay deals with biotin labeled Cry1Ab (UniProt P0A370 29-607, biotin labeled (sites not given)). In words: Far-Western blot, V5-enriched protein on PVDF probed with biotin labeled Cry1Ab.
In another assay the target is T1, V5-tagged Cry1Ab (UniProt P0A370 29-607, limits assumed).
T1 construct: not shown: V5 tag
In words: fluorescent confocal microscopy, co-localization on transfected Sf9 cells.

Method for biotin labeled Cry1Ab: Sixty hours after transfection, the cells were collected by centrifugation, lysed with detergent buffer, and the proteins were separated from the remaining cellular extracts by centrifugation. Extracted proteins from the supernatant were then incubated with Anti-V5 conjugated beads, and the V5 tagged Vip3 interacting candidates were partially purified and enriched by elution from the beads with SDS loading buffer. The proteins were separated by SDS-PAGE and transferred onto PVDF membrane for Far-Western blot analysis. The membrane was incubated with biotin-labeled Vip3A and Streptavidin-HRP followed by enhanced chemiluminescence (ECL) detection.

In turn, trypsinized Vip3A had a percent reduction of cell viability, Sf9 cells with the target silenced by dsRNA, 200 nM trypsinized Vip3A (GFP dsRNA control 30.055) in assay [1] of 17.1%. In addition, in assay [2], the percent reduction of cell viability, Sf9 cells with the target silenced by dsRNA, 200 nM trypsinized Vip3A (GFP dsRNA control 30.055) stood at 22.7%. The same molecule yielded a percent reduction of cell viability, Sf9 cells with the target silenced by dsRNA, 200 nM trypsinized Vip3A (GFP dsRNA control 30.055) in assay [3] of 0.99%. The percent reduction of cell viability, Sf9 cells with the target silenced by dsRNA, 200 nM trypsinized Vip3A (GFP dsRNA control 30.055) in assay [4] was 0.986%. In assay [5], the % of dead cells, co-transfected S2 cells, 0 nM Vip3A is 4%; the % of dead cells, co-transfected S2 cells, 25 nM Vip3A was 3%; the % of dead cells, co-transfected S2 cells, 50 nM Vip3A turned out to be 7%; the % of dead cells, co-transfected S2 cells, 100 nM Vip3A came out at 6%. In addition, in [5], the % of dead cells, co-transfected S2 cells, 200 nM Vip3A worked out at 9%; the % of dead cells, co-transfected S2 cells, 400 nM Vip3A stood at 10%; the % of dead cells, co-transfected S2 cells, 800 nM Vip3A was found to be 8%. Besides, in assay [6], the % of dead cells, co-transfected S2 cells, 0 nM Vip3A worked out at 1.5%; the % of dead cells, co-transfected S2 cells, 25 nM Vip3A turned out to be 6%; the % of dead cells, co-transfected S2 cells, 50 nM Vip3A worked out at 17%; the % of dead cells, co-transfected S2 cells, 100 nM Vip3A is 34%. In [6], this molecule displayed a % of dead cells, co-transfected S2 cells, 200 nM Vip3A of 64%; a % of dead cells, co-transfected S2 cells, 400 nM Vip3A of 81%; a % of dead cells, co-transfected S2 cells, 800 nM Vip3A of 96%. Moreover, in [7], the share of sequenced clones carrying the serpin gene after seven rounds of selection was 45%.
As to Vip3A, in assay [1], the Mortality (%) Day 2, FAW larvae pretreated with dsRNA for the target, Vip3A at 100 ng/cm^2 was 0%; the Mortality (%) Day 6, FAW larvae pretreated with dsRNA for the target, Vip3A at 100 ng/cm^2 is 0%; the Mortality (%) Day 10, FAW larvae pretreated with dsRNA for the target, Vip3A at 100 ng/cm^2 is 6.25%. Besides, in [2], the Mortality (%) Day 2, FAW larvae pretreated with dsRNA for the target, Vip3A at 100 ng/cm^2 was found to be 0%; the Mortality (%) Day 6, FAW larvae pretreated with dsRNA for the target, Vip3A at 100 ng/cm^2 turned out to be 15.4%; the Mortality (%) Day 10, FAW larvae pretreated with dsRNA for the target, Vip3A at 100 ng/cm^2 was determined as 53.9%. In [3], the Mortality (%) Day 2, FAW larvae pretreated with dsRNA for the target, Vip3A at 100 ng/cm^2 worked out at 12.5%; the Mortality (%) Day 6, FAW larvae pretreated with dsRNA for the target, Vip3A at 100 ng/cm^2 was 12.5%; the Mortality (%) Day 10, FAW larvae pretreated with dsRNA for the target, Vip3A at 100 ng/cm^2 stood at 37.5%.

B1: ATP synthase α from S. frugiperda, V5/6xHis-tagged (pIZT/V5-His) (other, not shown: small tags and cut ends)
chain: MSLISARIAGSVARRLPNAASQVSKVAGVAAPAVAVASRNFHVSPTQKAAEISTILEERILGAAPKADLEETGRVLSIGDGIARVYGLKNIQAEEMVEFSSGLKGMALNLEPDNVGVVVFGNDKLIKEGDIVKRTGAIVDVPVGEQLLGRVVDALGNAIDGKGPIDTKSRMRVGIKAPGIIPRVSVREPMQTGIKAVDSLVPIGRGQRELIIGDRQTGKTALAIDTIINQQRFNKGQDEKKKLYCIYVAIGQKRSTVAQIVKRLTDAGAINYTIIVSRTASDAAPLQYLAPYSGCAMGEFFRDNGKHALIIYDDLSKQAVAYRQMSLLLRRPPGREAYPGDVFYLHSRLLERAAKMSDKMGGGSLTALPVIETQAGDVSAYIPTNVISITDGQIFLETELFYKGIRPAINVGLSVSRVGSAAQTKAMKQVAGSMKLELAQYREVAAFAQFGSDLDAATQQLLNRGMRLTELLKQGQYVPMAIEEQVAIIYCGVRGHLDKLDPSKITGFEKEFTQHIKTSHQGLLATIAKDGQITPESDAALKKIVTDFLATFTQSQ
notes: Expressed in Sf9 cells
Take B1: the figures for the binding result in the assay with biotin labeled Cry1Ab and in the assay with V5-tagged Cry1Ab were “no binding” and “no binding (tested: 200 nM)”, respectively.
